Target: SARS-CoV-2 spike S1 protein (SARS-CoV-2, UniProt P0DTC2 13-685)
Experiment: fluorescence recovery (target-induced release of the probe from Nb2C MXene quencher)
Details: protein: recombinant

B1: SARS-CoV-2 S-RBD aptamer (G-CDs@Apt) (ssDNA)
DNA: CAGCACCGACCTTGTGCTTTGGGAGTGCTGGTCCAAGGGCGTTAATGGACA
modifications: 5'-NH2-C6
binding result: binds
